These results are taken from patent US20240270821A1, “GIP/GLP1/GCG TRI-RECEPTOR AGONISTS AND USES THEREOF” (priority 2023, published 2024).

Holding throughout (assay): cell-based or functional assay
In one assay the target is hGLP-1R (Homo sapiens, UniProt P43220).
Assay [1] deals with T1, human GIP receptor (human) (UniProt P48546).
T1 sequence (looked up): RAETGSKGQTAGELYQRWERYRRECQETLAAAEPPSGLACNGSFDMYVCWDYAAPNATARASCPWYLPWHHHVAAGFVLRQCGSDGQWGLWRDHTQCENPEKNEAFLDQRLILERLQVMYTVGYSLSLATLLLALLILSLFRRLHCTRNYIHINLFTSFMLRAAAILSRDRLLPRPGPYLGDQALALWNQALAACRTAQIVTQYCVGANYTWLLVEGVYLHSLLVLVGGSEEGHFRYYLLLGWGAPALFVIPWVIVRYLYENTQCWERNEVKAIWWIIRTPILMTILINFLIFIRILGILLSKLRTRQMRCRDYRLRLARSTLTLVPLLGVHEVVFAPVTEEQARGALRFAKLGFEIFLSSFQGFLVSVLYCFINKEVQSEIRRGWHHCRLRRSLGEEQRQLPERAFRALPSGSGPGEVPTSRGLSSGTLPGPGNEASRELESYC

The target of assay [2] is human glucagon receptor (human) (UniProt P47871).
human glucagon receptor (human), sequence (P47871 26-477): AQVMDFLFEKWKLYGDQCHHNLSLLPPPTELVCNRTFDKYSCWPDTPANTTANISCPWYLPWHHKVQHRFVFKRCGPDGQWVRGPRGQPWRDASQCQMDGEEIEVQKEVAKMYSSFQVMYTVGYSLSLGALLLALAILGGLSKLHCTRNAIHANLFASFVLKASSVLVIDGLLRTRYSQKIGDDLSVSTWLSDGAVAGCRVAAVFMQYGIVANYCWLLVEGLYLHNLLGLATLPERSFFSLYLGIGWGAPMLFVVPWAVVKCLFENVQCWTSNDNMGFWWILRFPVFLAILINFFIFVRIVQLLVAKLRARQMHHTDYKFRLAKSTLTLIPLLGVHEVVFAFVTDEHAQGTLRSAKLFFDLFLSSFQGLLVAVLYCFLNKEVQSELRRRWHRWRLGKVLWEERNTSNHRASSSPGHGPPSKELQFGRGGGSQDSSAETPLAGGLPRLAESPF

hGLP-1R, sequence (P43220 24-463): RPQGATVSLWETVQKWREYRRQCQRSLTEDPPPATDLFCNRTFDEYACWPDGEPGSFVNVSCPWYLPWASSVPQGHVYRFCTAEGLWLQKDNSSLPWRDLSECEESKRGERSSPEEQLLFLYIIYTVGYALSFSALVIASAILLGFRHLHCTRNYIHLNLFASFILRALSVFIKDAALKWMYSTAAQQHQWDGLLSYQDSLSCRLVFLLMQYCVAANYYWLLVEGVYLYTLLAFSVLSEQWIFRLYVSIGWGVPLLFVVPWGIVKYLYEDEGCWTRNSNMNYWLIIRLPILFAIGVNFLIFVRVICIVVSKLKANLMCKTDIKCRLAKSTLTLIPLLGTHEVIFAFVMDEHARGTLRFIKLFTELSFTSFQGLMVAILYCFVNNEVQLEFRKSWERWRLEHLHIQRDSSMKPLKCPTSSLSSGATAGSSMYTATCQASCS

B1: Example 901 (peptide)
chain: YXQGTFTSDXSKXLDKKAQXAFIEYLIEXGPSSGAPPPSGSE
modifications: synthetic construct; SITE 2: note = 2-Aminoisobutyric Acid; SITE 10: note = 3-(4-Pyridyl)-L-alanine; SITE 13: note = alpha-methyl-leucine; SITE 17: note = Lysine is chemically modified through conjugation of the epsilon-amino group of the Lysine side chain with (2-[2-(2-Amino-ethoxy)-ethoxy]-acetyl)
In the case of B1, the Relative cAMP EC50 was determined as 1.26 nM in the assay with hGLP-1R, 0.17 nM in assay [1] and 9.09 nM in assay [2]. Also, the cAMP Rel EC50 (1% HSA) is 193 nM with hGLP-1R, 34 nM in assay [1] and 1150 nM in assay [2].

B2: Example 904 (peptide)
chain: YXQGTFTSDXSKXLDKKAQXAFIEYLIEXGPSSGAPPPSGSE
modifications: synthetic construct; SITE 2: note = 2-Aminoisobutyric Acid; SITE 10: note = 3-(4-Pyridyl)-L-alanine; SITE 13: note = alpha-methyl-leucine; SITE 17: note = Lysine is chemically modified through conjugation of the epsilon-amino group of the Lysine side chain with (gamma-Glu)2-CO-(CH2)16-CO2H; SITE 20:
As for B2, the Relative cAMP EC50 with hGLP-1R was determined as 1.94 nM; in assay [1], 0.194 nM; in assay [2], 9.88 nM. Moreover, the cAMP Rel EC50 (1% HSA) amounted to 198 nM with hGLP-1R, 15 nM in assay [1] and 1330 nM in assay [2].

B3: Example 805 (peptide)
chain: YXQGTFTSDFSKXLDKKAQXAFIEYLIEXSPSSGAPPPSGS
modifications: synthetic construct; SITE 2: note = 2-Aminoisobutyric Acid; SITE 13: note = alpha-methyl-leucine; SITE 17: note = Lysine is chemically modified through conjugation of the epsilon-amino group of the Lysine side chain with (2-[2-(2-Amino-ethoxy)-ethoxy]-acetyl)-(gamma-Glu)-CO-(CH2) 16-CO2H; SITE 20: n
As to B3, the Relative cAMP EC50 in the assay with hGLP-1R was determined as 0.715 nM; in assay [1], 0.0875 nM; in assay [2] it was 3.97 nM. Further, the values for the cAMP Rel EC50 (1% HSA) (with hGLP-1R; in assay [1]; in assay [2]) were 146 nM, 13 nM and 1210 nM, respectively.

B4: Example 908 (peptide)
chain: YXQGTFTSDXSKXLDKKAQXAFIEYLIEGGPSSGAPPPSGS
modifications: synthetic construct; SITE 2: note = 2-Aminoisobutyric Acid; SITE 10: note = 3-(4-Pyridyl)-L-alanine; SITE 13: note = alpha-methyl-leucine; SITE 17: note = Lysine is chemically modified through conjugation of the epsilon-amino group of the Lysine side chain with (2-[2-(2-Amino-ethoxy)-ethoxy]-acetyl)
For the molecule B4, the figures for the Relative cAMP EC50 (with hGLP-1R; in assay [1]; in assay [2]) were 1.2 nM, 0.246 nM and 8.11 nM, respectively. For the same molecule, the cAMP Rel EC50 (1% HSA) in the assay with hGLP-1R is 174 nM; in assay [1] it was 26.7 nM; in assay [2], 980 nM.

B5: Example 806 (peptide)
chain: YXQGTFTSDFSRXLDKKAQXAFIEYLIEXSPSSGAPPPSGS
modifications: synthetic construct; SITE 2: note = 2-Aminoisobutyric Acid; SITE 13: note = alpha-methyl-leucine; SITE 17: note = Lysine is chemically modified through conjugation of the epsilon-amino group of the Lysine side chain with (2-[2-(2-Amino-ethoxy)-ethoxy]-acetyl)-(gamma-Glu)-CO-(CH2) 16-CO2H; SITE 20: n
As to B5, the Relative cAMP EC50 with hGLP-1R was found to be 0.706 nM; in assay [1] it was 0.124 nM; in assay [2] it was 8.25 nM. Further, the cAMP Rel EC50 (1% HSA) was 128 nM with hGLP-1R, 15.1 nM in assay [1] and 2760 nM in assay [2].

B6: Example 820 (peptide)
chain: YXQGTFTSDXSQXLDKKAQXAFIEYLLEAGPSSGAPPPSGS
modifications: synthetic construct; SITE 2: note = 2-Aminoisobutyric Acid; SITE 10: note = 3-(4-Pyridyl)-L-alanine; SITE 13: note = alpha-methyl-leucine; SITE 17: note = Lysine is chemically modified through conjugation of the epsilon-amino group of the Lysine side chain with (2-[2-(2-Amino-ethoxy)-ethoxy]-acetyl)
Regarding B6, the Relative cAMP EC50 is 2.78 nM in the assay with hGLP-1R, 0.121 nM in assay [1] and 6.83 nM in assay [2]. The cAMP Rel EC50 (1% HSA) with hGLP-1R came out at 299 nM; in assay [1], 17.5 nM; in assay [2], 1270 nM.

B7: Example 875 (SEQ ID NO: 881) (peptide)
chain: YXQGTFTSDFSQXLDKKAQXAFIEYLIAGGPSSGAPPPSGS
modifications: synthetic construct; SITE 2: note = 2-Aminoisobutyric Acid; SITE 13: note = alpha-methyl-leucine; SITE 17: note = Lysine is chemically modified through conjugation of the epsilon-amino group of the Lysine side chain with (2-[2-(2-Amino-ethoxy)-ethoxy]-acetyl)-(gamma-Glu)-CO-(CH2) 16-CO2H; SITE 20: n
For B7, the figures for the cAMP Rel EC50 (in the assay with hGLP-1R; in assay [1]; in assay [2]) were 78.6 nM, 13.8 nM and 689 nM, respectively.

B8: Example 876 (SEQ ID NO: 882) (peptide)
chain: YXQGTFTSDFSQXLDKKAQXAFIEYLIAGGPSSGAPPPSGS
modifications: not fully specified; synthetic construct; SITE 2: note = 2-Aminoisobutyric Acid; SITE 13: note = alpha-methyl-leucine; SITE 17: note = Lysine is chemically modified through conjugation of the epsilon-amino group of the Lysine side chain with (gamma-Glu)2-CO-(CH2)16-CO2H; SITE 20: note = 3-(4-Pyridyl)-L-alanine; SITE 41:
Consider B8, for which the figures for the cAMP Rel EC50 (in the assay with hGLP-1R; in assay [1]; in assay [2]) were 70 nM, 7.94 nM and 940 nM, respectively.

B9: Example 862 (SEQ ID NO: 868) (peptide)
chain: YXQGTFTSDFSQXLDKKAQXAFIEYLIEXGPSSGAPPPSGS
modifications: not fully specified; synthetic construct; SITE 2: note = 2-Aminoisobutyric Acid; SITE 13: note = alpha-methyl-leucine; SITE 17: note = Lysine is chemically modified through conjugation of the epsilon-amino group of the Lysine side chain with (gamma-Glu)3-CO-(CH2)16-CO2H; SITE 20: note = 3-(4-Pyridyl)-L-alanine; SITE 29:
As to B9, the cAMP Rel EC50 in the assay with hGLP-1R came out at 201 nM; in assay [1], 12.4 nM; in assay [2], 1110 nM.

B10: Example 907 (peptide)
chain: YXQGTFTSDXSKXLDKKAQXAFIEYLIEXGPSSGAPPPSGS
modifications: synthetic construct; SITE 2: note = 2-Aminoisobutyric Acid; SITE 10: note = 3-(4-Pyridyl)-L-alanine; SITE 13: note = alpha-methyl-leucine; SITE 17: note = Lysine is chemically modified through conjugation of the epsilon-amino group of the Lysine side chain with (gamma-Glu)2-CO-(CH2)16-CO2H; SITE 20:
Turning to B10, the results for the Relative cAMP EC50 (with hGLP-1R; in assay [1]; in assay [2]) were 1.15 nM, 0.103 nM and 5.79 nM, respectively. Further, the cAMP Rel EC50 (1% HSA) in the assay with hGLP-1R is 123 nM; in assay [1], 8.86 nM; in assay [2], 1210 nM.

B11: Example 77 (peptide)
chain: YXQGTFTSDFSRXLDKKAQXAFIEYLLAGGPSSGAPPPSGS
modifications: synthetic construct; SITE 2: note = 2-Aminoisobutyric Acid; SITE 13: note = alpha-methyl-leucine; SITE 17: note = Lysine is chemically modified through conjugation of the epsilon-amino group of the Lysine side chain with (2-[2-(2-Amino-ethoxy)-ethoxy]-acetyl)-(gamma-Glu)-CO-(CH2) 18-CO2H; SITE 20: n
As to B11, the Relative cAMP EC50 worked out at 1.85 nM with hGLP-1R, 0.168 nM in assay [1] and 15.3 nM in assay [2]. Further, the results for the cAMP Rel EC50, nM (in the presence of 1% HSA) (with hGLP-1R; in assay [1]; in assay [2]) were 339 nM, 37.9 nM and 2610 nM, respectively.

B12: Example 891 (SEQ ID NO: 897) (peptide)
chain: YXQGTFTSDXSQXLDKKAQXAFIEYLIEXGPSSGAPPPSGSGE
modifications: not fully specified; C-terminus uncertain, likely amide; synthetic construct; SITE 2: note = 2-Aminoisobutyric Acid; SITE 10: note = 3-(4-Pyridyl)-L-alanine; SITE 13: note = alpha-methyl-leucine; SITE 17: note = Lysine is chemically modified through conjugation of the epsilon-amino group of the Lysine side chain with (gamma-Glu)2-CO-(CH2)16-CO2H; SITE 20:
For B12, the cAMP Rel EC50 with hGLP-1R is 330 nM; in assay [1], 16 nM; in assay [2], 581 nM.
